Laboratory results taken from patent US20090074766A1, “Methods of inhibiting HIV-2 infection” (priority 2007, published 2009).
Where “and” joins values, the source holds several entries; their conditions need not be identical. Equal entries are not always repeated. Where two headings read alike, the source gives them in different places.

Columns and labels:
[1] = human, in vivo
Description: Sera were diluted as appropriate and combined with L1.2-CCR5 cells, which are mouse pre-B lymphoma cells engineered to stably express human CCR5. […] Following incubation with test samples, cells were washed and combined with a FITC-labeled sheep antibody against human IgG4 (The Binding Site Limited, Cat. #AF009). Cells were washed again and analyzed by flow cytometry.
Serum was collected post-treatment, cryopreserved, and analyzed for PRO 140 levels. Peak serum concentrations ranged to […] at 0.1 mg/kg and […] at 0.5 mg/kg.

[2] = tested on: viruses in PRO 140-treated subjects; assay: Phase 1b: virus susceptibility of subjects' viruses (PhenoSense Assay); type: cell-based, HIV-1
From the text: A non-limiting example of a widely used phenotypic HIV drug resistance test is the PhenoSense™ HIV assay, which measures the sensitivity of a virus to antiretroviral drugs.

[3] = tested on: R5 HIV-2 A2267; assay: Inhibition of replication in PBMC cultures, RT activity readout: HIV-2 A2267; type: cell-based
Description: (§1) Viruses: All virus isolates were grown and titered exclusively in stimulated PBMC as described previously. […] The HIV-2 isolates used in this study have been previously described (Owen, S. M., Ellenberger, D., Rayfield, M., Wiktor, S., Michel, P., Grieco, M. H., Gao, F., Hahn, B. H., and Lai, R. B. 1998. Genetically Divergent Strains of Human Immunodeficiency Virus Type 2 Use Multiple Coreceptors for Entry. J Virol 72:5425-5432) and were obtained from the NIH AIDS Research and Reference Reagent Program.
(§2) PA14 (Lot # DF-021204) was produced for reagent use in the Research & Development laboratories of Progenics Pharmaceuticals Inc.
(§3) Inhibition of HIV-1 and HIV-2 replication in PBMC cultures: PBMC were isolated from 34 healthy blood donors with Ficoll-Hypaque (all media from Cellgro, Herndon, Va.) and depleted of CD8+ cells using RosetteSep CD8 depletion cocktail (StemCell Technologies) according to the manufacturer's instructions. Equal numbers of cells from each donor were then separately stimulated with 5 ug phytohemagglutinin/ml (Sigma, St. Louis, Mo.) or with surface-immobilized anti-CD3 antibody OKT3 in RPMI 1640 medium containing 10% fetal calf serum, 100 Units of interleukin-2/ml (NIH AIDS Research and Reference Reagent Program), glutamine, and antibiotics (PBMC culture medium) as previously described. After 72 hours, equal numbers of PBMC stimulated by one of these two methods from each donor were combined for use in infection assays as follows. […] The virus inoculum was adjusted to 400 to 2,000 times the TCID50 per ml in PBMC culture medium, and a 50-ul aliquot was added to each culture. The inhibitory doses refer to the concentrations of the agents present at this point in the culture, when virus, cells, and inhibitors were all present at their final concentrations. Reverse Transcriptase (RT) activity was measured on Day 7 post infection (pi) for HIV-1 and Day 10 pi for HIV-2 by the Reverse Transcriptase Assay, Colorimetric kit, #11 468 120 910, Roche (Switzerland) according to the manufacturer's instructions with the following exception: neither ultracentrifugation nor PEG precipitation of the culture supernatants was performed before viral lysis.
(§4) The inhibition data were analyzed using GraphPad Prism software (GraphPad Software, San Diego, Calif.). A 4-parameter logistic fit was used calculate the concentration of inhibitor that afforded a 50% and a 90% reduction in RT activity. […] The % inhibitions where best-fit curve reached a top plateau, also as calculated by GraphPad Prism software, are reported as well as maximum percent inhibition (MPI). […] Inhibition curves with a poor sigmoid fit (R^2<0.7) were excluded from data analysis.

[4] = tested on: R5 HIV-2 310072; assay: Inhibition of replication in PBMC cultures, RT activity readout: HIV-2 310072; type: cell-based
Description: as §1, §2, §3, §4

[5] = tested on: CCR5 lymphocytes; type: in vivo, human
Description: Whole blood specimens were combined separately with the indicated phycoerythrin-labeled anti-CCR5 antibodies or with appropriate isotype-control antibodies. Erythocytes were lysed and leukocytes were stabilized using the ImmunoPrep Reagent System (Beckman Coulter), and the cells were analyzed on a TQ Prep™ flow cytometry workstation (Beckman Coulter). Data were expressed as the percent of CCR5 cells relative to all cells gated in the analysis.
For up to 60 days post-treatment, at the times indicated in FIG. 6, blood was collected and analyzed for CCR5 lymphocyte levels.
Background binding of isotype control antibodies was unchanged.

[6] = tested on: HIV-1; conditions: Olson et al., 1999; Trkola et al., 2001; cited from earlier work
[7] = tested on: HIV-1 CC 1/85; assay: Previous studies (300-TD-028): HIV-1 replication in PBMC quantitated by p24 ELISA, CC 1/85; type: cell-based
Description: The EC values were measured by p24 ELISA in previous studies, according to published methods. Because the p24 ELISA cannot efficiently quantitate p24 from the HIV-2 isolates used in this study, a commercial ELISA that measures reverse transcriptase was chosen as a readout for both the HIV-2 and HIV-1 infection assays in the present study.

[8] = tested on: CCR5 chemokine signaling; assay: RANTES-induced calcium mobilization in L1.2-CCR5 cells vs HIV-1JR-FL replication in PBMC (FIG. 4); type: cell-based, human; conditions: FIG. 4 legend, result in words
From the text: Similar results were obtained for MIP-1α and MIP-1β.

[9] = tested on: R5X4 HIV-2 77618; assay: Inhibition of replication in PBMC cultures, RT activity readout: HIV-2 77618; type: cell-based
Description: as §1, §2, §3, §4

[10] = tested on: R5 HIV-2 310340; assay: Inhibition of replication in PBMC cultures, RT activity readout: HIV-2 310340; type: cell-based
Description: as §1, §2, §3, §4

[11] = individual assays (Source), previous study, p24 ELISA
[12] = previous studies n = 24, median

B1: PRO 140: humanized IgG4,κ anti-CCR5 monoclonal antibody, humanized version of murine mAb PA14 (antibody, chains of the INN, looked up, V domains shown)
VH: EVQLVESGGGLVKPGGSLRLSCAASGYTFSNYWIGWVRQAPGKGLEWIGDIYPGGNYIRNNEKFKDKTTLSADTSKNTAYLQMNSLKTEDTAVYYCGSSFGSNYVFAWFTYWGQGTLVTVSS
VL: DIVMTQSPLSLPVTPGEPASISCRSSQRLLSSYGHTYLHWYLQKPGQSPQLLIYEVSNRFSGVPDRFSGSGSGTDFTLKISRVEAEDVGVYYCSQSTHVPLTFGQGTKVEIK
[1]
  terminal serum half-life: 240 to 288 h
[2]; all subjects
  change in rIC50 post-treatment: Less than 2 fold
[2]; baseline
  Mean Maximum Percent Inhibition (MPI): 99% (range: 93-100%)
  Mean rIC50: 2.0 (range: 0.83-5.1)
[2]; post-treatment
  Mean MPI: 99% (range: 93-100%)
  Mean rIC50: 2.1 (range: 0.98-4.71)
[3]; HIV-2 A2267, R5
  EC50 (median): 0.10 µg/mL
  EC90 (median): 98 µg/mL
[3]; R5 HIV-2 A2267, individual assays (Source)
  MPI (maximum percent inhibition): 97% and 115% and 88% and 94% and 75%
[3]; R5 HIV-2 A2267, median of assays with R^2 >= 0.7
  MPI, Median: 94%
[4]; HIV-2 310072, R5
  EC50 (median): 0.08 µg/mL
  EC90 (median): 1.4 µg/mL
[4]; R5 HIV-2 310072, individual assays (Source)
  MPI (maximum percent inhibition): 92% and 96% and 97%
[4]; R5 HIV-2 310072, median of assays with R^2 >= 0.7
  MPI, Median: 96%
[5]; single 2 mg/kg dose
  time cells remain partially coated: > 4 weeks
[5]; single 5 mg/kg dose
  time cells remain partially coated: > 60 days
[6]
  IC90: about 4 μg/ml
[7]; [11]
  EC50: 1.1 µg/mL and 0.004 µg/mL and 1.4 µg/mL and 0.16 µg/mL and 2.1 µg/mL and 0.006 µg/mL and <0.001 µg/mL and 0.001 µg/mL and 0.01 µg/mL and 4.5 µg/mL and 0.7 µg/mL and 0.96 µg/mL and 0.67 µg/mL and 0.58 µg/mL and 5.4 µg/mL and 4.6 µg/mL and 0.04 µg/mL and 0.85 µg/mL and 7.8 µg/mL and 5.1 µg/mL and 2.7 µg/mL and 0.08 µg/mL and 0.1 µg/mL
  EC90: 13 µg/mL and 0.34 µg/mL and 4.2 µg/mL and 3.6 µg/mL and 9.6 µg/mL and 0.22 µg/mL and <0.001 µg/mL and 0.01 µg/mL and 0.03 µg/mL and 1.1 µg/mL and >50 µg/mL and 4.9 µg/mL and 8.1 µg/mL and 24 µg/mL and 33 µg/mL and 7.3 µg/mL and 8.2 µg/mL and 0.88 µg/mL and 3.4 µg/mL
[7]; previous studies n = 24, mean
  EC50 (mean): <1.6 µg/mL
  EC90 (mean): >12 µg/mL
[7]; [12]
  EC50 (median): 0.69 µg/mL
  EC90 (median): 4.9 µg/mL
[8]
  effect on HIV-1 vs chemokine signaling: blocks HIV-1 but not chemokine signaling
[9]; HIV-2 77618, R5X4
  EC50 (median): >100 µg/mL
  EC90 (median): >100 µg/mL
[9]; Virus: R5X4 HIV-2 77618, individual experiments (Source)
  MPI: Maximum percent inhibition as determined from the plateau of the sigmoidal curve fit: 6% and −2%
[9]; Virus: R5X4 HIV-2 77618, median of experiments
  MPI, Median: 2%
[10]; HIV-2 310340, R5
  EC50 (median): 4.7 µg/mL
  EC90 (median): >100 µg/mL
[10]; Virus: R5 HIV-2 310340, individual experiments (Source)
  MPI: Maximum percent inhibition as determined from the plateau of the sigmoidal curve fit: 87% and 74% and 90% and 78%
[10]; Virus: R5 HIV-2 310340, median of experiments, poor curve fits (R^2 < 0.7) excluded
  MPI, Median: 83%
